Results as given in article PMC9884143 (The Journal of Biological Chemistry, 2023).
Substitutions are numbered along the chain they refer to.

B1: CoV2-YD-13 (VHH)
VHH: QVQLVESGGGLVQAGGSLRLSCAASGFTFDDYAIGWFRQAPGKEREGVSCISSSGGFTNYADSVKGRFTISSDNAKNTVYLQMNSLKPEDTAVYYCAVVVNGYGLDEWAYDYWGQGTQVTVS
B2: Rescue-1 (VHH)
VHH: DVQLVESGGGLVQAGDSLRLSCTASGRTFTTNAMGWFRQAPGKEREFVAAITWSYGTTYYSDPVEGRFTISRDNAKNTVYLQMNSLKPEDTAVYYCFYERLAWDTSTYWGQGTQVTVS
B3: Rescue-2 (VHH)
VHH: B2 VHH with T52S, S54N, G56D
B4: Rescue-3 (VHH)
VHH: B2 VHH with T52S, S54N, Y55S, E65K
B5: CoV2-YD-35 (VHH)
VHH: DVQLVESGGGLVQAGDSLRLSCTASGRTFTTNAMGWFRQAPGKEREFVAAISWSYGTTYYSDPVEGRFTISRSNAKNTVYLQMNSLKPDDTAVYYCTLRSRFNAAAWTTEAAFDYWGQGTQVTVS
B6: CoV2-YD-38 (VHH)
VHH: B5 VHH with T23A, S54N, Y55S, E65K, S73D, D89G, A105Y, A111N
B7: CoV2-YD-37 (VHH)
VHH: B5 VHH with S54N, G56D
B8: CoV2-YD-36 (VHH)
VHH: B5 VHH with D1Q, S52T
B9: CoV2-YD-12 (VHH)
VHH: QVQLVESGGGLVQAGGSLRLSCAASGSTFSRLNILWWRQAAGKPREWVATSTDGGTRNYAAAVKGRFTISRDNAKNTVYLQMNSLKPEDTAVYYCYTPDYWGQGTQVTVS
B10: CoV2-YD-11 (VHH)
VHH: QVQLVESGGGLVQAGGSLRLSCVVSGTTFSRYDMGWYRQAPGKARETVATISRSGTTNYAYFVKGRFTITRDNAKNTVYLQMNSLKPEDTAVYYCYIFGLDYWGQGTQVTVS
B11: CoV2-YD-14 (VHH)
VHH: QVQLVESGGGLVQAGGSLRLSCSASGNTFSTYSLSWYRQAPGKQREFVAAISSGGSTSYANSVKGRFSISRDNAKKTMYLQMNSLKPEDTAVYYCYVVTTLMDYWGQGTQVTVS
B12: CoV2-YD-5 (VHH)
VHH: QVQLVESGGGLVQAGGSLRLSCVASGTTISTYNLLWFRQAPGQQREWVASISSGGDTSYAGSVKGRFTISRDNTENTMYLQMNSLKPEDTAVYYCHGANAAHGMDYWGKGTQVTVS

Biological target: SARS-CoV-2 Spike receptor-binding domain (RBD), Delta variant (SARS-CoV-2, Delta (B.1.617.2; L452R, …, strain)

Row | Binder | Kd [nM]
1 | B1 | 45.4
2 | B2 | 14.1
3 | B3 | 11.2
4 | B4 | 27.1
5 | B5 | 0.185
6 | B6 | 0.256
7 | B7 | 2.4
8 | B8 | 0.022

Biological target: SARS-CoV-2 Spike receptor-binding domain (RBD), B.1.1.529 (Omicron) variant (SARS-CoV-2, Omicron B.1.1.529 (BA.1 RBD), strain)

Row | Binder | Kd [nM]
9 | B9 | 0.416
10 | B1 | 3.64
11 | B2 | 7.02
12 | B3 | 27
13 | B4 | 60.6
14 | B10 | 0.721
15 | B11 | 0.655
16 | B5 | 0.465
17 | B6 | 2.82
18 | B7 | 1.56
19 | B8 | 0.263
20 | B12 | 0.66
